Assay results published in PMC5955610 (Structure (London, England : 1993), 2010).

Target: T1, RMI1C (C-terminal domain of human RMI1, residues 475-625) (human, UniProt Q9H9A7 475-625, Se-Met substituted in the crystals)
T1 sequence (looked up): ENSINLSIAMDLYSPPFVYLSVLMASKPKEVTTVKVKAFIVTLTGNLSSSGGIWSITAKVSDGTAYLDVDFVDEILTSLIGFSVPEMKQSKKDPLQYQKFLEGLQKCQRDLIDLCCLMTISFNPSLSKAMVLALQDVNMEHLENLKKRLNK
Assay: crystal structure + SEC

stoichiometry N: 1 RMI1C:RMI2
B1: RMI2 (residues 6-147) (domain or fragment, human, UniProt Q96E14 6-147, looked up)
chain: DSFSGGPAGVRLPRSPPLKVLAEQLRRDAEGGPGAWRLSRAAAGRGPLDLAAVWMQGRVVMADRGEARLRDPSGDFSVRGLERVPRGRPCLVPGKYVMVMGVVQACSPEPCLQAVKMTDLSDNPIHESMWELEVEDLHRNIP
modifications: Se-Met substituted in the crystals
